This note sets out measurements from article PMC10511561, “Synergism between CMG helicase and leading strand DNA polymerase at replication fork” (Nature Communications, 2023).

For assay [1], the target named is T1, Pol2 (subunit of Polε in the replisome) (yeast, UniProt P21951 1-2222).
T1 construct: Pol2, yeast, catalytic subunit of Polε; Chain of m2 as it stands in the replisome structure; the catalytic NTD is flexible and not resolved; also called Pol2-CTD; Pol2-ZF2; source: yeast strain yAJ2, purified as part of Polε (calmodulin resin, TEV elution, Mono Q, Superose 6); not shown: CBP, N-terminal, cleaved
T1 sequence (P21951 whole entry): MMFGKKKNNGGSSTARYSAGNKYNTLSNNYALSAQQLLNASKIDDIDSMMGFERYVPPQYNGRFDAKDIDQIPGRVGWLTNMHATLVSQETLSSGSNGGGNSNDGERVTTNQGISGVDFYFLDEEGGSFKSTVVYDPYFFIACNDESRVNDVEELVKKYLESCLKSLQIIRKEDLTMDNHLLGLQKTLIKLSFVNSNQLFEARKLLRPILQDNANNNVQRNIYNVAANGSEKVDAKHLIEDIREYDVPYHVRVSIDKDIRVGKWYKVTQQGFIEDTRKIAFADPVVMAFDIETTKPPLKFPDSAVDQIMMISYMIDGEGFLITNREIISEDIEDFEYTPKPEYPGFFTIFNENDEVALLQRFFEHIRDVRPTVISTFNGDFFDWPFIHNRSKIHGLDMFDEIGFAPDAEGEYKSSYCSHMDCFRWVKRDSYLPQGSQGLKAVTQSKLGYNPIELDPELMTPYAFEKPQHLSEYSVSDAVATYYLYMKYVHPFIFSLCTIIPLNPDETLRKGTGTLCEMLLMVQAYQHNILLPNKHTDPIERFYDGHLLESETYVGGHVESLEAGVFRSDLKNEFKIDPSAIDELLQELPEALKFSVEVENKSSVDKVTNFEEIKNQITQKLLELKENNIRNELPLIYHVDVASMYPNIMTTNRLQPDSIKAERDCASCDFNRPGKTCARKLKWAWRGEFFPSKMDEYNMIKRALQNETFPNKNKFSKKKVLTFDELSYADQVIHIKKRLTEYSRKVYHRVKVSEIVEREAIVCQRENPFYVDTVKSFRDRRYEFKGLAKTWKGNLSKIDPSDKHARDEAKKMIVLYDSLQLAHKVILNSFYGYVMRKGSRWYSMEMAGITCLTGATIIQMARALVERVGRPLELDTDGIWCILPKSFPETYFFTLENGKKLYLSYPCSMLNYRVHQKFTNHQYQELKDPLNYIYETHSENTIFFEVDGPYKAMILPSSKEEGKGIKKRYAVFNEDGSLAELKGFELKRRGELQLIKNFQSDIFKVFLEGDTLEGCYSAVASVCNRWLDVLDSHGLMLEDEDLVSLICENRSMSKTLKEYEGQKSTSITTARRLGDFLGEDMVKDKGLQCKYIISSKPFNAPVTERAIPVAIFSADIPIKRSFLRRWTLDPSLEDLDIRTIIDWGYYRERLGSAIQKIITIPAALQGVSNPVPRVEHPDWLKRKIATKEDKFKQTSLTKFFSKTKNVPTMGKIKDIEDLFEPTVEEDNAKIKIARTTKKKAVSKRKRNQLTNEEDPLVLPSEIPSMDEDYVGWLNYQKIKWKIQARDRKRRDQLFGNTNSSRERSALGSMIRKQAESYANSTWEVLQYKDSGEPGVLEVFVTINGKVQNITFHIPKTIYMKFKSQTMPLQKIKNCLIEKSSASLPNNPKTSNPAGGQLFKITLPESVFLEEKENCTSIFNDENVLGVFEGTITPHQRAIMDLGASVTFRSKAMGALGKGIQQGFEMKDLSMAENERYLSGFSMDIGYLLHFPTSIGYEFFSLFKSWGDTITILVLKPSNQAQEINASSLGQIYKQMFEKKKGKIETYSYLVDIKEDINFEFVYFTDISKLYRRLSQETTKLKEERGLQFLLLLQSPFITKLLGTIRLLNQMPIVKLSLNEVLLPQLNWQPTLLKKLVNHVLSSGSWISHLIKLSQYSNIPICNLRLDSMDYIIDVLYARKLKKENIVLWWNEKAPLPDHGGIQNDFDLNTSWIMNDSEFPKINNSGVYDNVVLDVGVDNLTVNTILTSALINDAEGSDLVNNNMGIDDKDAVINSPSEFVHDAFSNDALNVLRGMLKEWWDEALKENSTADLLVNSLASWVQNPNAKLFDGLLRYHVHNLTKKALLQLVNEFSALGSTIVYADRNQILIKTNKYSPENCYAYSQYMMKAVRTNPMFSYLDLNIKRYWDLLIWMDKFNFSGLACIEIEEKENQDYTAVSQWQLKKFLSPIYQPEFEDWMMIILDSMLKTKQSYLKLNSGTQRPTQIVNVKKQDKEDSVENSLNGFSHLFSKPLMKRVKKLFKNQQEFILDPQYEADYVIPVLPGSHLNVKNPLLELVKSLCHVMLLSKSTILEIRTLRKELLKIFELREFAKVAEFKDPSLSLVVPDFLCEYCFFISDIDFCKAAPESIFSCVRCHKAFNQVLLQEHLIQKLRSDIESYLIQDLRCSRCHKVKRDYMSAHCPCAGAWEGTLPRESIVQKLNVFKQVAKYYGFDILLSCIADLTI
Put plainly: cryo-EM structure; replisome assembled at room temperature from 0.7 uM CMG, forked DNA and ATPγS, then 1.5 molar excess of Polε, Ctf4, Tof1-Csm3; 100 mM KCl, 25 mM HEPES pH 7.6, 4 mM MgCl2, 4 mM ATPγS; 10-30% glycerol gradient with glutaraldehyde fixation; States I-VI by 3D classification. As to conditions: both partners purified.

The next assay has as its target T2, Tof1-Csm3 (yeast, UniProt P53840 1-1238; Q04659 1-317).
T2 construct: Tof1, yeast; Csm3, yeast; Purified beforehand as one complex; also called Tof1 and Csm3; components of the fork protection complex (FPC); source: yeast strain yAE48, galactose-induced, purified (calmodulin resin, TEV elution, Mono Q, Superose 6); not shown: CBP, N-terminal, cleaved
The assay is described as above. The note with it: both partners purified.

T2 sequence (P53840 whole entry, chain 1 of 2): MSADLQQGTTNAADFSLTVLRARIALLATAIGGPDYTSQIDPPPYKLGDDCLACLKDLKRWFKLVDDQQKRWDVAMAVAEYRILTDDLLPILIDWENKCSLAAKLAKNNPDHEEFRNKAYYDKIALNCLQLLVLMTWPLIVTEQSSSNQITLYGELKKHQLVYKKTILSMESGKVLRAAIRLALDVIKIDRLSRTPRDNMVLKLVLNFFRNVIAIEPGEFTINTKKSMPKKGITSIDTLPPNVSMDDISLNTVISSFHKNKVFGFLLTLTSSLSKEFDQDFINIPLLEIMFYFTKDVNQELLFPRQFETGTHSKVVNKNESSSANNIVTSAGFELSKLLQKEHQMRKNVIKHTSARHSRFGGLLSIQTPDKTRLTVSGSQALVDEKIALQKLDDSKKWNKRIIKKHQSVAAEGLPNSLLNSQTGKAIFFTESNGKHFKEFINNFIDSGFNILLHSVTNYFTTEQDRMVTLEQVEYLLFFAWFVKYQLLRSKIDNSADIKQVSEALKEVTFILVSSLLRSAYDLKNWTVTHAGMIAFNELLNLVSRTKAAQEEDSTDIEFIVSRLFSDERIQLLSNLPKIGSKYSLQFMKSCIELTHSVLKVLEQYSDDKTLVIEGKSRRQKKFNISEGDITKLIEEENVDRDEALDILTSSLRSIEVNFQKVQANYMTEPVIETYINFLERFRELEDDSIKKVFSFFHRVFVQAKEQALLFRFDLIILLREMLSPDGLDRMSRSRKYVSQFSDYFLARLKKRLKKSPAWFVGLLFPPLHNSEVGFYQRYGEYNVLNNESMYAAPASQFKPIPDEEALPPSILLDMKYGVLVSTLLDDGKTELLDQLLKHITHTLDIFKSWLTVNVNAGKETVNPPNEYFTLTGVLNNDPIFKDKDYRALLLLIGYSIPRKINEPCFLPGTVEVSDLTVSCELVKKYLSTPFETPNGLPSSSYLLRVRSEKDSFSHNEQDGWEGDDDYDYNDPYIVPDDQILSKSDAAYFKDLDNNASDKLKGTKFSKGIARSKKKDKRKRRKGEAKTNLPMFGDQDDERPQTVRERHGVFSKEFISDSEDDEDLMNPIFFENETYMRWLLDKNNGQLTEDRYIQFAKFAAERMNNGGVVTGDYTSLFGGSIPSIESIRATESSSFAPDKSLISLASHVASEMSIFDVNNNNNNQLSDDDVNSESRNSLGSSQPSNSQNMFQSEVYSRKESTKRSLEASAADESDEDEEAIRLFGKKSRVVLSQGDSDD
T2 sequence (Q04659 whole entry, chain 2 of 2): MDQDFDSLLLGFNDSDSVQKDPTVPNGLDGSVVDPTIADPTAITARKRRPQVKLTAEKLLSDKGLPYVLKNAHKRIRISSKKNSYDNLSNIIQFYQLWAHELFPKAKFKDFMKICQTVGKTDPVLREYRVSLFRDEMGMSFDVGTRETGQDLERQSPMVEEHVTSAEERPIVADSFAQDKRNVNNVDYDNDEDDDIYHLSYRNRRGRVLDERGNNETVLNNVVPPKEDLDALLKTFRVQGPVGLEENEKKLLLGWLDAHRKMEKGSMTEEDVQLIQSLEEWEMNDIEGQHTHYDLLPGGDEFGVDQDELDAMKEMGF

B1: Cdc45 (subunit of CMG) (natural protein, yeast)
chain: MYYGISQFSEAYNKILRNSSSHSSCQLVIFVSCLNIDALCATKMLSLLFKKQLVQSQIVPIFGYSELRRHYSQLDDNINSLLLVGFGGVIDLEAFLEIDPQEYVIDTDEKSGEQSFRRDIYVLDAHRPWNLDNIFGSQIIQCFDDGTVDDTLGEQKEAYYKLLELDEESGDDELSGDENDNNGGDDEATDADEVTDEDEEDEDETISNKRGNSSIGPNDLSKRKQRKKQIHEYEGVLEEYYSQGTTVVNSISAQIYSLLSAIGETNLSNLWLNILGTTSLDIAYAQVYNRLYPLLQDEVKRLTPSSRNSVKTPDTLTLNIQPDYYLFLLRHSSLYDSFYYSNYVNAKLSLWNENGKKRLHKMFARMGIPLSTAQETWLYMDHSIKRELGIIFDKNLDRYGLQDIIRDGFVRTLGYRGSISASEFVEALTALLEVGNSTDKDSVKINNDNNDDTDGEEEEDNSAQKLTNLRKRWVSNFWLSWDALDDRKVELLNRGIQLAQDLQRAIFNTGVAILEKKLIKHLRIYRLCVLQDGPDLDLYRNPLTLLRLGNWLIECCAESEDKQLLPMVLASIDENTDTYLVAGLTPRYPRGLDTIHTKKPILNNFSMAFQQITAETDAKVRIDNFESSIIEIRREDLSPFLEKLTLSGLL
notes: Cdc45, yeast; Chain of m1 as it stands in the replisome structure; source: yeast strain yJCZ2, purified as part of CMG (anti-FLAG M2 resin, Mono Q, Superose 6)
On to B1, for which the binding result in assay [1] is on record as “binds”.

B2: Mcm6 (subunit of CMG) (natural protein, yeast)
chain: MSSPFPADTPSSNRPSNSSPPPSSIGAGFGSSSGLDSQIGSRLHFPSSSQPHVSNSQTGPFVNDSTQFSSQRLQTDGSATNDMEGNEPARSFKSRALNHVKKVDDVTGEKVREAFEQFLEDFSVQSTDTGEVEKVYRAQIEFMKIYDLNTIYIDYQHLSMRENGALAMAISEQYYRFLPFLQKGLRRVVRKYAPELLNTSDSLKRSEGDEGQADEDEQQDDDMNGSSLPRDSGSSAAPGNGTSAMATRSITTSTSPEQTERVFQISFFNLPTVHRIRDIRSEKIGSLLSISGTVTRTSEVRPELYKASFTCDMCRAIVDNVEQSFKYTEPTFCPNPSCENRAFWTLNVTRSRFLDWQKVRIQENANEIPTGSMPRTLDVILRGDSVERAKPGDRCKFTGVEIVVPDVTQLGLPGVKPSSTLDTRGISKTTEGLNSGVTGLRSLGVRDLTYKISFLACHVISIGSNIGASSPDANSNNRETELQMAANLQANNVYQDNERDQEVFLNSLSSDEINELKEMVKDEHIYDKLVRSIAPAVFGHEAVKKGILLQMLGGVHKSTVEGIKLRGDINICVVGDPSTSKSQFLKYVVGFAPRSVYTSGKASSAAGLTAAVVRDEEGGDYTIEAGALMLADNGICCIDEFDKMDISDQVAIHEAMEQQTISIAKAGIHATLNARTSILAAANPVGGRYNRKLSLRGNLNMTAPIMSRFDLFFVILDDCNEKIDTELASHIVDLHMKRDEAIEPPFSAEQLRRYIKYARTFKPILTKEARSYLVEKYKELRKDDAQGFSRSSYRITVRQLESMIRLSEAIARANCVDEITPSFIAEAYDLLRQSIIRVDVDDVEMDEEFDNIESQSHAASGNNDDNDDGTGSGVITSEPPADIEEGQSEATARPGTSEKKKTTVTYDKYVSMMNMIVRKIAEVDREGAEELTAVDIVDWYLLQKENDLGSLAEYWEERRLAFKVIKRLVKDRILMEIHGTRHNLRDLENEENENNKTVYVIHPNCEVLDQLEPQDSS
notes: Mcm6, yeast; Chain of m1 as it stands in the replisome structure; source: yeast strain yJCZ2, purified as part of CMG (anti-FLAG M2 resin, Mono Q, Superose 6)
For the molecule B2, in the assay with Tof1-Csm3, the binding result is recorded as “binds”.

B3: Mcm2 (subunit of CMG) (natural protein, yeast)
chain: MSDNRRRRREEDDSDSENELPPSSPQQHFRGGMNPVSSPIGSPDMINPEGDDNEVDDVPDIDEVEEQMNEVDLMDDNMYEDYAADHNRDRYDPDQVDDREQQELSLSERRRIDAQLNERDRLLRNVAYIDDEDEEQEGAAQLDEMGLPVQRRRRRRQYEDLENSDDDLLSDMDIDPLREELTLESLSNVKANSYSEWITQPNVSRTIARELKSFLLEYTDETGRSVYGARIRTLGEMNSESLEVNYRHLAESKAILALFLAKCPEEMLKIFDLVAMEATELHYPDYARIHSEIHVRISDFPTIYSLRELRESNLSSLVRVTGVVTRRTGVFPQLKYVKFNCLKCGSILGPFFQDSNEEIRISFCTNCKSKGPFRVNGEKTVYRNYQRVTLQEAPGTVPPGRLPRHREVILLADLVDVSKPGEEVEVTGIYKNNYDGNLNAKNGFPVFATIIEANSIKRREGNTANEGEEGLDVFSWTEEEEREFRKISRDRGIIDKIISSMAPSIYGHRDIKTAVACSLFGGVPKNVNGKHSIRGDINVLLLGDPGTAKSQILKYVEKTAHRAVFATGQGASAVGLTASVRKDPITKEWTLEGGALVLADKGVCLIDEFDKMNDQDRTSIHEAMEQQSISISKAGIVTTLQARCSIIAAANPNGGRYNSTLPLAQNVSLTEPILSRFDILCVVRDLVDEEADERLATFVVDSHVRSHPENDEDREGEELKNNGESAIEQGEDEINEQLNARQRRLQRQRKKEEEISPIPQELLMKYIHYARTKIYPKLHQMDMDKVSRVYADLRRESISTGSFPITVRHLESILRIAESFAKMRLSEFVSSYDLDRAIKVVVDSFVDAQKVSVRRQLRRSFAIYTLGH
notes: Mcm2, yeast; Chain of m1 as it stands in the replisome structure; source: yeast strain yJCZ2, purified as part of CMG (anti-FLAG M2 resin, Mono Q, Superose 6)
With B3, the binding result in assay [1] is reported as “binds”.

B4: Mcm4 (subunit of CMG) (natural protein, yeast)
chain: MSQQSSSPTKEDNNSSSPVVPNPDSVPPQLSSPALFYSSSSSQGDIYGRNNSQNLSQGEGNIRAAIGSSPLNFPSSSQRQNSDVFQSQGRQGRIRSSASASGRSRYHSDLRSDRALPTSSSSLGRNGQNRVHMRRNDIHTSDLSSPRRIVDFDTRSGVNTLDTSSSSAPPSEASEPLRIIWGTNVSIQECTTNFRNFLMSFKYKFRKILDEREEFINNTTDEELYYIKQLNEMRELGTSNLNLDARNLLAYKQTEDLYHQLLNYPQEVISIMDQTIKDCMVSLIVDNNLDYDLDEIETKFYKVRPYNVGSCKGMRELNPNDIDKLINLKGLVLRSTPVIPDMKVAFFKCNVCDHTMAVEIDRGVIQEPARCERIDCNEPNSMSLIHNRCSFADKQVIKLQETPDFVPDGQTPHSISLCVYDELVDSCRAGDRIEVTGTFRSIPIRANSRQRVLKSLYKTYVDVVHVKKVSDKRLDVDTSTIEQELMQNKVDHNEVEEVRQITDQDLAKIREVAAREDLYSLLARSIAPSIYELEDVKKGILLQLFGGTNKTFTKGGRYRGDINILLCGDPSTSKSQILQYVHKITPRGVYTSGKGSSAVGLTAYITRDVDTKQLVLESGALVLSDGGVCCIDEFDKMSDSTRSVLHEVMEQQTISIAKAGIITTLNARSSILASANPIGSRYNPNLPVTENIDLPPPLLSRFDLVYLVLDKVDEKNDRELAKHLTNLYLEDKPEHISQDDVLPVEFLTMYISYAKEHIHPIITEAAKTELVRAYVGMRKMGDDSRSDEKRITATTRQLESMIRLAEAHAKMKLKNVVELEDVQEAVRLIRSAIKDYATDPKTGKIDMNLVQTGKSVIQRKLQEDLSREIMNVLKDQASDSMSFNELIKQINEHSQDRVESSDIQEALSRLQQEDKVIVLGEGVRRSVRLNNRV
notes: Mcm4, yeast; Chain of m1 as it stands in the replisome structure; source: yeast strain yJCZ2, purified as part of CMG (anti-FLAG M2 resin, Mono Q, Superose 6)
B4: in the assay with Tof1-Csm3, the binding result is reported as “binds”.

B5: Mcm5 (subunit of CMG) (natural protein, yeast)
chain: MSFDRPEIYSAPVLQGESPNDDDNTEIIKSFKNFILEFRLDSQFIYRDQLRNNILVKNYSLTVNMEHLIGYNEDIYKKLSDEPSDIIPLFETAITQVAKRISILSRAQSANNNDKDPENTSMDTDSLLLNSLPTFQLILNSNANQIPLRDLDSEHVSKIVRLSGIIISTSVLSSRATYLSIMCRNCRHTTSITINNFNSITGNTVSLPRSCLSTIESESSMANESNIGDESTKKNCGPDPYIIIHESSKFIDQQFLKLQEIPELVPVGEMPRNLTMTCDRYLTNKVIPGTRVTIVGIYSIYNSKNGAGSGRSGGGNGGSGVAIRTPYIKILGIQSDVETSSIWNSVTMFTEEEEEEFLQLSRNPKLYEILTNSIAPSIFGNEDIKKAIVCLLMGGSKKILPDGMRLRGDINVLLLGDPGTAKSQLLKFVEKVSPIAVYTSGKGSSAAGLTASVQRDPMTREFYLEGGAMVLADGGVVCIDEFDKMRDEDRVAIHEAMEQQTISIAKAGITTVLNSRTSVLAAANPIYGRYDDLKSPGDNIDFQTTILSRFDMIFIVKDDHNEERDISIANHVINIHTGNANAMQNQQEENGSEISIEKMKRYITYCRLKCAPRLSPQAAEKLSSNFVTIRKQLLINELESTERSSIPITIRQLEAIIRITESLAKLELSPIAQERHVDEAIRLFQASTMDAASQDPIGGLNQASGTSLSEIRRFEQELKRRLPIGWSTSYQTLRREFVDTHRFSQLALDKALYALEKHETIQLRHQGQNIYRSGV
notes: Mcm5, yeast; Chain of m1 as it stands in the replisome structure; also called Mcm5-CTD; Mcm5-WHD; source: yeast strain yJCZ2, purified as part of CMG (anti-FLAG M2 resin, Mono Q, Superose 6)
As for B5, the binding result in assay [1] was “binds”.
